Laboratory results reported in the supplement of paper PMC7125110.
± gives the standard error. Fewer inactive variants are shown than the library holds.

B1: glmS ribozyme (parent)
chain: AUAAAAGCGCCAGAACUACAGAAAUGUAGUUGACGAGGAGGAGGUUUAUCGAAUUUUCGGCGGAUGCCUCCAAA

Legend:
Settings in all cases: with glucosamine-6-phosphate
glucosamine-6-phosphate [1] = variants of: B1; assay: self-cleavage kobs at 40 uM GlcN6P; higher = faster cleavage; RNA array
Outline: (§1)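 kcat and KM were obtained from weighted Michaelis–Menten fits across concentrations of kobs values. Those came from one- or two-exponential decay fits to per-tile medians normalised to baseline and to non-cleaving reference variants. The variants were barcoded ribozymes transcribed in situ by E. coli RNA polymerase on sequenced MiSeq chips and tracked through a hybridised Cy3 probe at 37 °C, with 40 μM to 10 mM glucosamine-6-phosphate in HEPES/KCl/Mg(OAc)2 buffer flowed in.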

glucosamine-6-phosphate [2] = variants of: B1; assay: self-cleavage kobs at 640 uM GlcN6P; higher = faster cleavage; RNA array
Outline: as §1

glucosamine-6-phosphate [3] = variants of: B1; assay: self-cleavage kobs at 10000 uM GlcN6P; higher = faster cleavage; RNA array
Outline: as §1

glucosamine-6-phosphate [4] = variants of: B1; assay: self-cleavage kobs at 160 uM GlcN6P; higher = faster cleavage; RNA array
Outline: as §1

glucosamine-6-phosphate [5] = variants of: B1; assay: self-cleavage kobs at 2500 uM GlcN6P; higher = faster cleavage; RNA array
Outline: as §1

Row | Variant | self-cleavage kobs at 40 uM GlcN6P (glucosamine-6-phosphate [1]) [s⁻¹] | self-cleavage kobs at 640 uM GlcN6P (glucosamine-6-phosphate [2]) [s⁻¹] | self-cleavage kobs at 10000 uM GlcN6P (glucosamine-6-phosphate [3]) [s⁻¹] | self-cleavage kobs at 160 uM GlcN6P (glucosamine-6-phosphate [4]) [s⁻¹] | self-cleavage kobs at 2500 uM GlcN6P (glucosamine-6-phosphate [5]) [s⁻¹]
1 | AUAAAAGCGCCAGAACUACAGAAAUGUAGUUCACGAGCAGGAGGUUUAUCGAAUUUUCGCCGGAUGGCUCCAAA [G32C G38C G60C C67G] | < 1e-05 | < 1e-05 | < 1e-05 | – | –
2 | AUAAAAGCGCCAGAACUACAGAAAUGUAGUUUACGUGGAGAAGGUUUAUCGAAUUUUCGGCGGAUGCCUCCAAA [G32U A36U G41A] | < 1e-05 | < 1e-05 | – | – | –
3 | AUAAAAGCGCCAGAACUACAGAAAUGUAGUUCACGAGGAGGAGGUUUAUCGAAUUUUCGGCGGAUGACUCCAAA [G32C C67A] | < 1e-05 | – | 2.83e-05 ± 9.7e-06 | – | –
4 | AUAAAAGCGCCAGAACUACAGAAAUGUAGUUCACGAGGAGGCGGUUUAUCGAAUUUUCGGCGGAUGCAUCCAAA [G32C A42C C68A] | < 1e-05 | < 1e-05 | – | – | –
5 | AUAAAAGCGCCAGAACUACAGAAAUGUAGUUCACGAGGAGGACGUUUGUCGAAUUUUCGGCGGAUGCCUCCAAA [G32C G43C A48G] | < 1e-05 | – | – | – | –
6 | AUAAAAGCGCCAGAACUACAGAAAUGUAGUUUACGAGGAGGAGGUUUUUCGAAUUUUCGGCGGAUGCCUCCAAA [G32U A48U] | < 1e-05 | < 1e-05 | – | < 1e-05 | –
7 | AUAAAAGCGCCAGAACUACAGAAAUGUAGUUUACGAGGAGGAGGUUUAUCGAAUUUUCAGCGGAUGCCUCCAAA [G32U G59A] | < 1e-05 | < 1e-05 | – | < 1e-05 | –
8 | AUAAAAGCGCCAGAACUACAGAAAUGUAGUUCACGAGGAGGAGGUUUAUCGAAUUUUCGGCGAAUGCCUCCAAA [G32C G63A] | < 1e-05 | < 1e-05 | – | < 1e-05 | < 1e-05
9 | AUAAAAGCGCCAGAACUACAGAAAUGUAGUUCACGAGGAGGAGGUUUAUCGAUUUUUCCGCGGAUGCCUCUAAA [G32C A53U G59C C71U] | < 1e-05 | < 1e-05 | < 1e-05 | – | –
10 | AUAAAAGCGCCAGAACUACAGAAAUGUAGUUUACGAGGACGAGGUUUAUCGAAUUUUCGGUGGAUGACUCCAAA [G32U G40C C61U C67A] | < 1e-05 | – | – | – | –
11 | AUAAAAGCGCCAGAACUACAGAAAUGUAGUUCACGAGGACGAGGUUUAUCGAAUUUUCGGCGGAUGCCUCCAAA [G32C G40C] | < 1e-05 | < 1e-05 | – | < 1e-05 | –
12 | AUAAAAGCGCCAGAACUACAGAAAUGUAGUUCACGAGGAGGAGGUUUAUCGAAUUUCCGGCGGAUGCCUCCAAA [G32C U57C] | < 1e-05 | < 1e-05 | – | < 1e-05 | –
13 | AUAAAAGCGCCAGAACUACAGAAAUGUAGUUUACGGGGAGGAGGUUUAUCGAAUUUUCGGCGGAUGCCUCCAAA [G32U A36G] | < 1e-05 | < 1e-05 | < 1e-05 | < 1e-05 | < 1e-05
14 | AUAAAAGCGCCAGAACUACAGAAAUGUAGUUCACGAGGAGGAGAUUUAUCGAAUUUUCGGCGGAUGCCUCCAAA [G32C G44A] | < 1e-05 | < 1e-05 | < 1e-05 | < 1e-05 | < 1e-05
15 | AUAAAAGCGCCAGAACUACAGAAAUGUAGUUUACGAGCAGGAGGUUUAUCGAAUUUUCGGCGGAUGCCUCCAAA [G32U G38C] | < 1e-05 | – | – | – | –
16 | AUAAAAGCGCCAGAACUACAGAAAUGUAGUUCACGAGGAGCAGGUUUAUCGAAUUUUCGGCGGAUGCCUCCAAA [G32C G41C] | < 1e-05 | < 1e-05 | < 1e-05 | < 1e-05 | < 1e-05
17 | AUAAAAGCGCCAGAACUACAGAAAUGUAGUUCACCAGGAGGAGGUUUAUCGAAUUUUCGGCGGAUGCCUCCAAA [G32C G35C] | < 1e-05 | < 1e-05 | < 1e-05 | – | –
18 | AUAAAAGCGCCAGAACUACAGAAAUGUAGUUCACGAGGAGGAGGUCUAUCGAAUUUUCGGCGGAUGCCUCCAAA [G32C U46C] | < 1e-05 | – | – | – | –
19 | AUAAAAGCGCCAGAACUACAGAAAUGUAGUUCACGAGGAGGAGGUAUAUCGAAUUUUCGGCGGAUGCCUCCAAA [G32C U46A] | < 1e-05 | < 1e-05 | – | < 1e-05 | –
20 | AUAAAAGCGCCAGAACUACAGAAAUGUAGUUGCCGCGGAGGAGGUUUAUCGAAUUUUCGGCGGAUGCCUCCAAA [A33C A36C] | < 1e-05 | – | – | – | < 1e-05
21 | AUAAAAGCGCCAGAACUACAGAAAUGUAGUUCACGAGGAGGAGGUUUAUCGAAUUUUCGGCAGAUGCCUCCAAA [G32C G62A] | < 1e-05 | < 1e-05 | – | < 1e-05 | < 1e-05
22 | AUAAAAGCGCCAGAACUACAGAAAUGUAGUUUACGAGGAGGAGGUUUAUCGAAUUUUCGGCGAAUGUCUCCAAA [G32U G63A C67U] | < 1e-05 | – | < 1e-05 | – | < 1e-05
23 | AUAAAAGCGCCAGAACUACAGAAAUGUAGUUUACGAGGAGGAGGUUUAUCGAAUUUUCGGCGGAUGUCUUCAAA [G32U C67U C70U] | < 1e-05 | – | – | – | –
24 | AUAAAAGCGCCAGAACUACAGAAAUGUAGUUUACGAGGAGGAGGUUUAUGGAAUUUUCGGAGGAUGCCUCCAAA [G32U C50G C61A] | 0.000162 ± 2.5e-05 | – | 0.000319 ± 4.2e-05 | – | –
25 | AUAAAAGCGCCAGAACUACAGAAAUGUAGUUUACGAGGAGGAGGUUUAUCGAAUUUUCGGCGGACGCCUCCAAA [G32U U65C] | < 1e-05 | < 1e-05 | – | < 1e-05 | < 1e-05
26 | AUAAAAGCGCCAGAACUACAGAAAUGUAGUUUACGAGGAGGAGGUUUUUCGAAUUUUUGGCGGAUGCUUCCAAA [G32U A48U C58U C68U] | < 1e-05 | – | – | – | –
27 | AUAAAAGCGCCAGAACUACAGAAAUGUAGUUCACGAGGCGGAGAUUUGUCGAAUUUUCGGCGGACGCAUCAAAA [G32C A39C G44A A48G U65C C68A C71A] | < 1e-05 | – | < 1e-05 | – | –
28 | AUAAAAGCGCCAGAACUACAGAAAUGUAGUUUACGAGGAGGAGGUUUAUCGAAUGUUCGGCGGUUGCCUCCAAA [G32U U55G A64U] | < 1e-05 | – | – | – | –
29 | AUAAAAGCGCCAGAACUACAGAAAUGUAGUUCACGAGGAGGAGGUUUCUCGAAUUUUCGCCGGAUGCCUCCAAA [G32C A48C G60C] | < 1e-05 | – | – | – | –
